In patent US20090325867A1, “RECEPTOR-SPECIFIC TUMOUR NECROSIS FACTOR-RELATED APOPTOSIS-INDUCING LIGAND (TRAIL) VARIANTS” (MEDICAL RESEARCH COUNCIL, priority 2005, published 2009):

Assays:
[1] = system: primary MCL cells; assay: Apoptosis in freshly isolated primary MCL cells with or without depsipeptide pre-treatment; type: cell-based, human; conditions: depsipeptide 5 nM 16 h, spontaneous apoptosis 23.4±2.9%
Description: Cell lines were also pre-incubated for 30 min with a TRAIL-R1 blocking Ab and a TRAIL-R2 neutralizing Ab from Alexis and R&D systems, respectively, prior to exposure to TRAIL. Freshly isolated cells from patients with MCL were isolated, purified and incubated with different forms of TRAIL as described above for CLL cells. Samples were either analyzed immediately for apoptosis or stored at −80° C. for subsequent Western blotting. Other methods and reagents were as described (Inoue (2004 Cell Death Differ 11 Suppl 2, S193-206); MacFarlane et al., 2005 ibid).
(§1) Apoptosis was quantified by phosphatidylserine (PS) externalization in the presence of propidium iodide as described (MacFarlane et al., 2002 ibid.). Samples for Western blot analysis were prepared and caspase processing detected as described (Inoue et al., 2004 ibid.; MacFarlane et al., 2005 ibid.).
We also obtained three samples from patients with mantle cell lymphoma (MCL), an incurable and aggressive disease that accounts for ˜6% of all non-Hodgkin's lymphoma. There are no standard treatments for MCL and the prognosis is very poor particularly for the blastoid variant. MCL cells were isolated and exposed to the different forms of TRAIL after pre-treatment for 16 h with depsipeptide (5 nM).

[2] = system: primary CLL cells; assay: Apoptosis in freshly isolated CLL cells after depsipeptide; type: cell-based, human; conditions: depsipeptide 10 nM 16 h, then 6 h ligand or antibody, FIG. 2C
Description: (§2) After exposure of the cells for 30 min, DISC complexes were isolated and analyzed for the indicated proteins by Western blotting. To provide an unstimulated receptor control (u/s), biotinylated wt or mutant TRAIL was added to lysate from untreated cells. C: Freshly isolated cells from patients with CLL were incubated for 16 h either alone or in the presence of depsipeptide (10 nM). […] The different symbols used indicate data from six individual patients and the solid line indicates the Mean.
(§3) Ramos, an Epstein-Barr virus-negative Burkitt's lymphoma cell line, and Jurkat T cells (clone E6-1) were cultured as described (MacFarlane et al (2005 Cell Death and Differentiation vol 12 pages 773-782)). Blood samples were obtained from CLL patients, with patient consent and local ethical committee approval and CLL cells purified as described (MacFarlane et al (2002 Oncogene 21, 6809-6818). Cells were incubated for 16 h with depsipeptide (10 nM), provided by Dr. E. Sausville (NCI, USA). Cells were then cultured for a further 6 h with either HGSETR1 or HGS-ETR2, agonistic mAbs to TRAIL-R1 or -R2, respectively (Human Genome Sciences, Rockville, Md.), His-TRAIL-LE (a recombinant TRAIL with low endotoxin—Alexis Corporation, Nottingham, UK), His-TRAIL, a similar form of human recombinant TRAIL (MacFarlane et al (1997 J Biol Chem 272, 25417-25420)) but not further purified to reduce endotoxin levels or a mutant form of His-TRAIL as described (MacFarlane et al., 2005 ibid.). Cell lines were also pre-incubated for 30 min with a TRAIL-R1 blocking Ab and a TRAIL-R2 neutralizing Ab from Alexis and R&D systems, respectively, prior to exposure to TRAIL. Freshly isolated cells from patients with MCL were isolated, purified and incubated with different forms of TRAIL as described above for CLL cells. Samples were either analyzed immediately for apoptosis or stored at −80° C. for subsequent Western blotting. Other methods and reagents were as described (Inoue (2004 Cell Death Differ 11 Suppl 2, S193-206); MacFarlane et al., 2005 ibid).
as §1

[3] = system: TRAIL DISC in Jurkat cells; assay: DISC analysis with biotinylated TRAIL in Jurkat cells; type: cell-based; conditions: biotinylated ligand 500 ng ml^−1, 30 min
Description: as §2
(§4) Ramos or Jurkat cells (5×10^7 cells per treatment) were exposed to biotin-tagged recombinant His-TRAIL (biotinylated TRAIL) or one of its mutant forms (500 ng ml^−1) for 30 min and then DISC formation assessed as described previously (MacFarlane et al., 2002 ibid.).

[4] = system: Ramos cells; assay: Apoptosis by phosphatidylserine (PS) externalization in Ramos cells; type: cell-based; conditions: for % PS+ cells, Ramos: 4 h exposure, 500 ng ml^−, Mean ± SEM of at least three determinations; for ability to induce apoptosis in Ramos cells (in words): PS externalization, compared with wt TRAIL
Description: (§5) Cells were also exposed to HGS-ETR1 or HGSETR2 (1 μg ml^−1). C: Ramos or Jurkat cells were pre-incubated for 30 min either alone or with TRAIL-R1 blocking Ab or TRAIL-R2 neutralizing Ab (5 μg ml^−1). […] D: Ramos and Jurkat cells were exposed to wt TRAIL or TRAIL mutants as described above and processing of caspase-3 and -8 determined by Western blot analysis. The asterisk indicates a non-specific band. The lower panel of the blot for detection of the caspase-8 p18 subunit was exposed for twice as long as the upper panel. Apoptosis was assessed by phosphatidylserine externalization and results expressed as the Means±SEM of at least 3 separate determinations.
as §3, §1
Ramos and Jurkat T cells (clone E6-1) were cultured as described (MacFarlane et al, 2005 ibid.). The breast tumour cell line, MCF-7 (clone F43) was cultured as described previously (MacFarlane et al., 2000 J. Cell Biol. 148, 1239-1254). Cells were cultured for either 4 h (Ramos and Jurkat) or 6 h (MCF-7) with His-TRAIL (MacFarlane et al, 1997 J Biol Chem 272, 25417-25420), HGS-ETR1 or HGS-ETR2 (Human Genome Sciences), or a mutant form of His-TRAIL (MacFarlane et al, 2005 ibid.). Samples were analyzed for apoptosis, Western blotting, or TRAIL DISC activation as described (MacFarlane et al, 2005 ibid.; MacFarlane et al. 2002 Oncogene 21, 6809-6818). Mutants of His-TRAIL (residues 95-281) were generated using the Quik-Change site-directed mutagenesis kit (Stratagene, Calif.), confirmed by DNA sequencing, expressed in E. coli and purified as described (MacFarlane et al, 1997 ibid.). For siRNA targeting of TRAIL-R1/-R2, MCF-7 cells were seeded into six-well plates immediately prior to effectene-mediated RNAi transfection with either a negative control siRNA (30 nM, Ambion, #4611), or preannealed siRNA oligonucleotides for TRAIL-R1 or TRAIL-R2 (30 nM, Ambion), with the sequence and validity described (Ren et al, 2004 Mol. Biol. Cell vol 15 pp 5064-5074). After 40 h of transfection the cells were collected and total TRAIL-R1 or TRAIL-R2 levels assessed. […]

[5] = system: Ramos cells; assay: Caspase-8 and -3 processing by Western blot in Ramos cells; type: cell-based; conditions: FIG. 1D
Description: as §5, §1
(§6) To confirm that the mutants were inducing apoptosis, we examined their effects on the processing of caspase-8, the apical caspase in death receptor-induced apoptosis and caspase-3, an effector caspase.

[6] = system: Jurkat cells; assay: Caspase-8 and -3 processing by Western blot in Jurkat cells; type: cell-based; conditions: FIG. 1D
Description: as §5, §1, §6

[7] = system: Jurkat cells; assay: Apoptosis by phosphatidylserine (PS) externalization in Jurkat cells; type: cell-based; conditions: for % PS+ cells, Jurkat: 4 h exposure, 500 ng ml^−, Mean ± SEM of at least three determinations; for ability to induce apoptosis in Jurkat cells (in words): PS externalization, compared with wt TRAIL
Description: as §5, with “determinations. […]” for “determinations.”
as §1
Ramos and Jurkat T cells (clone E6-1) were cultured as described (MacFarlane et al, 2005 ibid.). The breast tumour cell line, MCF-7 (clone F43) was cultured as described previously (MacFarlane et al., 2000 J. Cell Biol. 148, 1239-1254). Cells were cultured for either 4 h (Ramos and Jurkat) or 6 h (MCF-7) with His-TRAIL (MacFarlane et al, 1997 J Biol Chem 272, 25417-25420), HGS-ETR1 or HGS-ETR2 (Human Genome Sciences), or a mutant form of His-TRAIL (MacFarlane et al, 2005 ibid.). Samples were analyzed for apoptosis, Western blotting, or TRAIL DISC activation as described (MacFarlane et al, 2005 ibid.; MacFarlane et al. 2002 Oncogene 21, 6809-6818). Mutants of His-TRAIL (residues 95-281) were generated using the Quik-Change site-directed mutagenesis kit (Stratagene, Calif.), confirmed by DNA sequencing, expressed in E. coli and purified as described (MacFarlane et al, 1997 ibid.). For siRNA targeting of TRAIL-R1/-R2, MCF-7 cells were seeded into six-well plates immediately prior to effectene-mediated RNAi transfection with either a negative control siRNA (30 nM, Ambion, #4611), or preannealed siRNA oligonucleotides for TRAIL-R1 or TRAIL-R2 (30 nM, Ambion), with the sequence and validity described (Ren et al, 2004 Mol. Biol. Cell vol 15 pp 5064-5074). After 40 h of transfection the cells were collected and total TRAIL-R1 or TRAIL-R2 levels assessed. Where indicated, RNAi transfected MCF-7 cells were either left untreated or exposed to wt-TRAIL and apoptosis assessed by the extent of Bax activation, determined using the conformation specific Bax MAb, clone 3 (Dewson et al, 2003 Oncogene vol 22 pp 2643-54).

[8] = system: TRAIL DISC in Ramos cells; assay: DISC analysis with biotinylated TRAIL in Ramos cells; type: cell-based; conditions: biotinylated ligand 500 ng ml^−1, 30 min
Description: as §2, §4

Molecule	apoptosis, depsipeptide alone [1]	sensitization of CLL cells to induced apoptosis by depsipeptide [2]	DISC formation: receptor bound, FADD and caspase-8 recruitment [3]	% PS+ cells, Ramos [4]	ability to induce apoptosis in Ramos cells (in words) [4]	processing of caspase-8 and caspase-3 [5]	processing of caspases-8 and -3 [6]	inhibition of induced apoptosis by TRAIL-R1 blocking Ab ([7]; 30 min pre-incubation with Ab (5 μg ml^−1))	% PS+ cells, Jurkat [7]	ability to induce apoptosis in Jurkat cells (in words) [7]	DISC formation: receptor bound, FADD and caspase-8 recruitment [8]
C/C=C1\NC(=O)[C@H]2CSSCC/C=C/[C@H](CC(=O)N[C@H](C(C)C)C(=O)N2)OC(=O)[C@H](C(C)C)NC1=O [depsipeptide, reference compound]	35.4±5%										
TRAIL.R2-6: His-TRAIL (95-281) with 189Gln, 191Lys, 193Arg, 264Arg, 266Leu, 267Gln; TRAIL-R2 selective mutant (protein, biotin (site not stated) in the DISC analysis only; not biotinylated in the apoptosis assays) TSEETISTVQEKQQNISPLVRERGPQRVAAHITGTRGRSNTLSSPNSKNEKALGRKINSWESSRSGHSFLSNLHLRNGELVIHEKGFYYIYSQTQFKFREEIKENTKNDKQMVQYIYKYTSYPDPILLMKSARNSCWSKDAEYGLYSIYQGGIFELKENDRIFVSVTNERLLQMDHEASFFGAFLVG		lack of activity and not	bound TRAIL-R2 extensively in the DISC	9.4 ± 1.6%	not in Ramos cells	not	most potent	not	58.4 ± 11.6%	potently induced apoptosis	failed to recruit FADD or caspase-8 to the DISC
TRAIL.R1-6: His-TRAIL (95-281) with 189Ala, 193Ser, 199Val, 201Arg, 213Trp, 215Asp; proposed TRAIL-R1 selective mutant of Kelley et al. (protein, biotin (site not stated) in the DISC analysis only; not biotinylated in the apoptosis assays) TSEETISTVQEKQQNISPLVRERGPQRVAAHITGTRGRSNTLSSPNSKNEKALGRKINSWESSRSGHSFLSNLHLRNGELVIHEKGFYYIYSQTAFRFSEEIKEVTRNDKQMVQYIYKWTDYPDPILLMKSARNSCWSKDAEYGLYSIYQGGIFELKENDRIFVSVTNEHLIDMDHEASFFGAFLVG			bound neither TRAIL-R1 nor -R2	13.7 ± 1.3%	largely inactive				6.4 ± 0.8%	inactive	failed to recruit FADD or caspase-8 to the DISC
